Numbering of substitutions follows the chain as printed. In names and notes the source's numbering stands. Entries after “also recorded” stand apart in the source; their conditions may differ.
B1: P160L: Pseudomonas putida AroF-I DAHP synthase with P160L mutation, SEQ ID NO:2 (protein, listed as Pseudomonas putida)
chain: LAAGTRDLTSNTMADLPIDDLNVASNETLITPDQLKKEIPLSAKALQTVTAGREVVRNILDGKDHRLFVVVGPCSIHDIKAAHEYAERLKVLAEEVSDTLYLVMRVYFEKPRTTVGWKGLINDPYLDDSFKIQDGLHIGRKLLLDLAEMGLPTATEALDLISPQYLQDLISWSAIGARTTESQTHREMASGLSSAVGFKNGTDGGLTVAINALQSVSKPHRFLGINQEGGVSIVTTKGNPYGHVVLRGGNGKPNYDSVSVALCEQDLAKAKIKANIMVDCSHANSNKDPALQPLVMENVANQILEGNQSIIGLMVESHLNWGCQSIPKNLDDLQYGVSITDACIDWSATEKTLRSMHAKLKDVLPQRKRG
B2: P160L/S193A: Pseudomonas putida AroF-I DAHP synthase with P160L/S193A double mutation, SEQ ID NO:4 (protein, listed as Pseudomonas putida)
chain: B1 chain with S193A
B3: P160L/G191K: Pseudomonas putida AroF-I DAHP synthase with P160L/G191K double mutation (protein)
chain: B1 chain with G191K
B4: P160L/Q164A: Pseudomonas putida AroF-I DAHP synthase with P160L/Q164A double mutation, SEQ ID NO:3 (protein, listed as Pseudomonas putida)
chain: LAAGTRDLTSNTMADLPIDDLNVASNETLITPDQLKKEIPLSAKALQTVTAGREVVRNILDGKDHRLFVVVGPCSIHDIKAAHEYAERLKVLAEEVSDTLYLVMRVYFEKPRTTVGWKGLINDPYLDDSFKIQDGLHIGRKLLLDLAEMGLPTATEALDLISPAYLQDLISWSAIGARTTESQTHREMASGLSSAVGFKNGTDGGLTVAINALQSVSKPHRFLGINQEGGVSIVTTKGNPYGHVVLRGGNGKPNYDSVSVALCEQDLAKAKIKANIMVDCSHANSNKDPALQPLVMENVANQILEGNQSIIGLMVESHLNWGCQSIPKNLDDLQYGVSITDACIDWSATEKTLRSMHAKLKDVLPQRKRGLAAGTRDLTSNTMADLPIDDLNVASNETLITPDQLKKEIPLSAKALQTVTAGREVVRNILDGKDHRLFVVVGPCSIHDIKAAHEYAERLKVLAEEVSDTLYLVMRVYFEKPRTTVGWKGLINDPYLDDSFKIQDGLHIGRKLLLDLAEMGLPTATEALDLISPAYLQDLISWSAIGARTTESQTHREMASGLSSAVGFKNGTDGGLTVAINALQSVSKPHRFLGINQEGGVSIVTTKGNPYGHVVLRGGNGKPNYDSVSVALCEQDLAKAKIKANIMVDCSHANSNKDPALQPLVMENVANQILEGNQSIIGLMVESHLNWGCQSIPKNLDDLQYGVSITDACIDWSATEKTLRSMHAKLKDVLPQRKRG

Legend:
[1] = system: wild-type Pseudomonas putida AroF-I enzyme; test: Enzymatic activity assay (PEP consumption by HPLC), inhibition by tyrosine; assay type: biochemical; conditions: 1 mM tyrosine, 300 μM PEP, 300 μM E4P, 60 minutes at 30° C., FIG. 1
Method: The activity of the enzymes is measured by monitoring the disappearance of the substrate using HPLC (High Pressure Liquid Chromatography) detection. The reaction is performed in a final volume of 200 μl with 40 mM of phosphate buffer, pH 7, 300 μM of phospho(enol)pyruvate (PEP), 20 μg of purified enzyme, 1 mM of tyrosine (or another aromatic amino acid) or 3 μM of HCl, the volume being completed with ultrapure water. After pre-incubation for 2 minutes at 30° C., the reaction is initiated by adding 300 μM of erythrose-4-phosphate […]) and the reaction mixture is incubated for 60 minutes at 30° C. Finally, the mixture is heated for 5 minutes at 80° C. in order to stop the reaction and precipitate the proteins. The enzymatic activity assays are firstly centrifuged for 10 minutes at 15 000×g in order to precipitate the proteins. The supernatant obtained is filtered over a 0.22 μm membrane before HPLC analysis. The method used is described below: • System: Agilent 1100 (Agilent) • Column: Luna OMEGA polar C18 (Phenomenex) • Mobile phase: 1 mM phosphoric acid • Flow rate: 0.3 ml/min • UV detection: 220 nm • Injection: 5 μl • Duration of analysis: 15 minutes In order to quantify the amount of PEP present in the samples, a series of standards is analyzed, with PEP concentrations from 0.1 mM to 1 mM.

AroF-I enzyme = test: Enzymatic activity assay (PEP consumption by HPLC) of AroF-I mutants with or without tyrosine; assay type: biochemical, Pseudomonas putida; conditions: for resistance of the enzyme to inhibition by tyrosine: 1 mM tyrosine, PEP consumed compared to AroF-I WT, FIG. 2-4; for enzymatic activity (PEP consumed): in the presence or absence of tyrosine, FIG. 3
Method: In order to express and purify the AroF-I enzyme and the mutants derived therefrom, the corresponding genes are cloned in a pET28_b(+) plasmid with a His tag grafted to the N-terminal part of the protein (upstream of the gene's ATG).
The activity of the enzymes is measured by monitoring the disappearance of the substrate using HPLC (High Pressure Liquid Chromatography) detection.
The reaction is performed in a final volume of 200 μl with 40 mM of phosphate buffer, pH 7, 300 μM of phospho(enol)pyruvate (PEP), 20 μg of purified enzyme, 1 mM of tyrosine (or another aromatic amino acid) or 3 μM of HCl, the volume being completed with ultrapure water.
After pre-incubation for 2 minutes at 30° C., the reaction is initiated by adding 300 μM of erythrose-4-phosphate (E4P) and the reaction mixture is incubated for 60 minutes at 30° C.
Finally, the mixture is heated for 5 minutes at 80° C. in order to stop the reaction and precipitate the proteins.
The enzymatic activity assays are firstly centrifuged for 10 minutes at 15 000×g in order to precipitate the proteins. The supernatant obtained is filtered over a 0.22 μm membrane before HPLC analysis.
The method used is described below: • System: Agilent 1100 (Agilent) • Column: Luna OMEGA polar C18 (Phenomenex) • Mobile phase: 1 mM phosphoric acid • Flow rate: 0.3 ml/min • UV detection: 220 nm • Injection: 5 μl • Duration of analysis: 15 minutes
In order to quantify the amount of PEP present in the samples, a series of standards is analyzed, with PEP concentrations from 0.1 mM to 1 mM.

Molecule | activity of the wild-type AroF-I enzyme in the presence of tyrosine [1] | resistance of the enzyme to inhibition by tyrosine (AroF-I enzyme) | enzymatic activity (PEP consumed) (AroF-I enzyme)
N[C@@H](Cc1ccc(O)cc1)C(=O)O [tyrosine] | inhibited |  | 
B1 |  | partially resistant | 
B2 |  | virtually completely resistant; also recorded: synergistic effect | restored virtually all the enzymatic activity
B3 |  |  | no longer has any activity
B4 |  | slightly improved | 

Reference: patent US20250283030A1, “Biosynthesis of Phenylpropanoid Compounds” (BGENE GENETICS, priority 2021, published 2025)
